Measured values published in the supplement of paper PMC9170038.

System: MS2 coat protein
Experiment: apparent KD of MS2 coat protein; designed switch direction (-1 OFF switch, 1 ON switch): 1; higher = weaker reporter binding
Procedure, shortened: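 On Illumina chips, designed RNA switches with common flanks were made by stalled E. coli RNA polymerase. Titrations with SNAP-549-labelled MS2 coat protein, doubling from 0.7 or 1.5 nM to 3 µM, were done with no input, with 200 uM small-molecule ligand, or with an oligonucleotide input. Apparent KD is the median per design over clusters, from curve fits of normalised cluster fluorescence.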

[1] = input ligand: microRNA oligo, concentration not stated
[2] = Eterna round: R95, input ligand: FMN 200 uM
[3] = Eterna round: R95, input ligand: microRNA oligo, concentration not stated
[4] = Eterna round: R95, input ligand: none

Sequence | apparent KD of MS2 coat protein (input ligand: FMN 200 uM) | apparent KD of MS2 coat protein [1] | apparent KD of MS2 coat protein (input ligand: none) | apparent KD of MS2 coat protein [2] | apparent KD of MS2 coat protein [3] | apparent KD of MS2 coat protein [4]
CGCCAGAGAACAGGAUAUGGGCCGCAGCCUAUGGGCCGCGAACUCACAUGAGGAUCACCCAUGUCCCAGAAGGGUUCCUGGCUG [Tiusonon] (Eterna round: R96, puzzle: Same State NG 2) | 154 nM | 596 nM | 2070 nM |  |  | 
CGCCGACAUGAGGAUCACCCAUGUCACAACUGGUCAGGAUAUGGUAUGAUUUGGCUAUUGCCAGAAGGGACCUCAG [JR_SS001_Sub712] (Eterna round: R96, puzzle: Same State 1) | 22.4 nM | 28.8 nM | 30.6 nM |  |  | 
CGCUGUCACGCAGGAUAUGCAUUGGAUUACAAUGCAGAAGGGCGAUUACAUGAGGAUCACCCAUGUGUAGACAGUGAAGAAGAG [MOD JMF Solution 3] (Eterna round: R96, puzzle: Same State NG 1) | 32.4 nM | 271 nM | 386 nM |  |  | 
CGGAGACGUCAAGGAUAUGCUACCGUUUCGGUAGCAGAAGGUGAUCACAUGAGGAUCACCCAUGUAUGCAUGCGUGAGCGUGCU [JL SSNG1 3.51] (Eterna round: R96, puzzle: Same State NG 1) | 125 nM | 99.2 nM | 21.1 nM |  |  | 
CGGCGCUGUCGAGAGGAUAUGCGGUGAUGGACAUGAGGAUCACCCAUGUUAGCGAUAGCAUCACGGUAGAAGGCUCUACGGCUGG [Soteed Omei mod 20] (puzzle: Same State 2) |  |  |  | 10.7 nM | 18.6 nM | 26.2 nM
CGGCGCUGUCGAGAGGAUAUGCGGUGAUGGACAUGAGGAUCACCCAUGUUAGCGAUAGCAUCACGGUAGAAGGCUCUACGGCUUG [Soteed Omei mod 21] (puzzle: Same State 2) |  |  |  |  | 31 nM | 
CGGGACAUGAGGAUCACCCAUGUGCCGAAAGGCACAAGAACGCAGGAUAUAGGGCAAAGACAGCCCUAGAAGGGUGACCUUGUG [Tiesralabe] (Eterna round: R96, puzzle: Same State NG 3) | 197 nM | 21.3 nM | 117 nM |  |  | 
CGGGUACAUGAGGAUCACCCAUGUUGGAGUAAUGCAGGAUAUGUGGGACGAGGUUAUAAAACAGAAGGGCAAGGAG [JR_SS!_Sub011] (puzzle: Same State 1) |  |  |  | 53.5 nM | 62.9 nM | 67.2 nM
CGGUGUGAGAAAGGAUAUGUUCGCUAGUCGCGAGCAGAAGGUUCUGCGCGCUGCUAUACGAACAUGAGGAUCACCCAUGUAAAA [Laqu] (Eterna round: R96, puzzle: Same State NG 1) | 130 nM | 11.8 nM | 69.2 nM |  |  | 
CGUAGGUAGCUGGAGGAUAUCCGAGUGGUAACAUGAGGAUCACCCAUGUGAUGAAAGGAACAUGAGGAGAAGGCUAGCUGCCUGC [JL-ss2-3.11 JL mod] (puzzle: Same State 2) |  |  |  | 15.4 nM | 29 nM | 30.9 nM
CGUAGGUAGCUGGAGGAUAUUCGAGUGGUAACAUGAGGAUCACCCAUGUGGAGUUAGUUACAUGAGGAGAAGGCUAGCUGCCUGC [JL-ss2-3.17 JL mod] (puzzle: Same State 2) |  |  |  | 36.7 nM | 61 nM | 74.5 nM
CGUAGGUAGCUGGAGGAUAUUCGAGUGGUAACAUGAGGAUCACCCAUGUGGAGUUAUUUACAUGAGGAGAAGGCUAGCUGCCUGC [JL-ss2-3.16 JL mod] (puzzle: Same State 2) |  |  |  | 14.3 nM | 107 nM | 136 nM
CGUAGGUAGCUGGAGGAUAUUCGAGUGGUAACAUGAGGAUCACCCAUGUGUUGAGAGGUACAUGAGGAGAAGGCUAGCUGCCUGC (puzzle: Same State 2) |  |  |  | 17.6 nM | 58.2 nM | 75.1 nM
CGUCCAGCCUGAGCUGGACAAAAGCAUGUACAUGAGGAUCACCCAUGUUCAUGUACAAGCUUUUUGCUCGUCUUAUA [salish99_208a_r3_046] (puzzle: Sensor for hsa-mir-208a) |  |  |  | 585 nM | 13.9 nM | 479 nM
CGUCCAGCCUGAGCUGGACAAAAGCAUGUACAUGAGGAUCACCCAUGUUCAUGUACAAGCUUUUUGCUCGUCUUAUG [salish99_208a_r3_054] (Eterna round: R96, puzzle: Sensor for hsa-mir-208a) | 485 nM | 16.4 nM | 607 nM |  |  | 
CGUCCAGCCUGAGCUGGACAAAAGCAUGUACAUGAGGAUCACCCAUGUUCAUGUACAAGCUUUUUGCUCGUCUUAUG [salish99_208a_r3_054] (puzzle: Sensor for hsa-mir-208a) |  |  |  | 662 nM | 17.9 nM | 1110 nM

Sequence | apparent KD of MS2 coat protein (input ligand: FMN 200 uM) | apparent KD of MS2 coat protein [1] | apparent KD of MS2 coat protein (input ligand: none) | apparent KD of MS2 coat protein [2] | apparent KD of MS2 coat protein [3] | apparent KD of MS2 coat protein [4]
CGUCCGGCCUGUGCUGGCCGGUAUCAUGUACAUGAGGAUCACCCAUGUUCAUGUGCAGGCUUUUUGCUCGUCUUGUG [salish99_mir208a_012] (puzzle: Sensor for hsa-mir-208a) |  |  |  | 20.5 nM | 12.8 nM | 19.9 nM
CGUCCGGCCUGUGCUGGCCGGUGGCUUGUACAUGAGGAUCACCCAUGUUCUUGUGCUGGCUUGUUGCUCGUCUUGUG [salish99_mir208a_r3_022] (puzzle: Sensor for hsa-mir-208a) |  |  |  | 27.9 nM | 19.1 nM | 33.4 nM
CGUCCGGCCUGUGCUGGCCGGUUGCUUGUACAUGAGGAUCACCCAUGUUCAUGUGCAGGCUUUUUGCUCGUCUUGUG [salish99_mir208a_015] (puzzle: Sensor for hsa-mir-208a) |  |  |  | 38.3 nM | 31.1 nM | 45.8 nM
CGUCGUUUGAUAGGAUAUCGCUAUACAUGAGGAUCACCCAUGUUUACCACGCUGGUUUUUCUUUCCGAGAAGGAUUCUGAUGUU [salish99_SSNG02_r04_022] (Eterna round: R96, puzzle: Same State NG 2) | 30.9 nM | 23.8 nM | 33.5 nM |  |  | 
CGUCGUUUGCUAGGAUAUCGCUAUACAUGAGGAUCACCCAUGUUUACCACGCUGGUUUUUCAUACCGAGAAGGAUUCUGAUGUU [salish99_SSNG02_r04_018] (Eterna round: R96, puzzle: Same State NG 2) | 24 nM | 28.7 nM | 34.1 nM |  |  | 
CGUUGUUCCUGAGGAUAUCAGUUGUUUGCAUUAUGAGAAGGCAGUACAUGAGGAUCACCCAUGUUGGGAUUUGAUAGAAUGACG [JR_SSNG1_Sub008] (Eterna round: R96, puzzle: Same State NG 1) | 221 nM | 113 nM | 226 nM |  |  | 
CUAAAACAUGAGGAUCACCCAUGUCAACAAAGUCGAGGAUAUGGGCAAAUAAAAUAAGAACCAGAAGGCGAAUAAG [salish99_SS1_r3_013] (puzzle: Same State 1) |  |  |  | 81.9 nM | 274 nM | 543 nM
CUACGAGCGCCACAGGAUAUACUGAGACUCACAUGAGGAUCACCCAUGUCCAAUUCUCCCAAAUAGUAGAAGGGUGACGCGCUCA [Soordire] (puzzle: Same State 2) |  |  |  | 51.1 nM | 565 nM | 546 nM
CUACUACAUGAGGAUCACCCAUGUUGGAGUGAUGCAGGAUAUGUGUGACCAGAAGAUGAAACAGAAGGGCAAAGAA [JR_SS!_Sub003] (puzzle: Same State 1) |  |  |  | 41.9 nM | 68 nM | 96.2 nM
CUAUCUACAGGUUGCAGUGCUCGUCUUAUACAUGAGGAUCACCCAUGUUAUAGCCCGGUGCUUGCGCUGGGCUGACC [JL ViennaUCT Tearor mod 1] (puzzle: Sensor for hsa-mir-208a) |  |  |  | 33.7 nM | 15.6 nM | 33.6 nM
CUCAAAACAAGCUGCAGUGUUCGUCUUUCACAUGAGGAUCACCCAUGUAGUAGCCCAGUGGAAGCGCUCGGGCCACC [Eronrace] (puzzle: Sensor for hsa-mir-208a) |  |  |  | 55 nM | 24.9 nM | 54.1 nM
CUCAAAACAAGUUGCAGUGUUCGUCUUUAACAUGAGGAUCACCCAUGUAAUAGCCCGGUGGAAGCGCUCGGGCUACC [Edtireisge] (puzzle: Sensor for hsa-mir-208a) |  |  |  | 39.8 nM | 24 nM | 45.5 nM
CUCAAACAUGAGGAUCACCCAUGUGUUGUCAUGGGAGGAUAUCUAAGUUCAUUGUAUUCAGGAGAAGGCCUAUGUC [× ×•×ª×• ×ž×“×™× ×” × ×—×ª-08] (puzzle: Same State 1) |  |  |  |  | 284 nM | 
CUCCAUUGGGUAGGAUAUCUAGGAUAUGGGAAAGACUAAGUCUGUAGGUCACCUAACCCAGAUGGAGAGAAGGACCCAACACUC [pwkr ssNG2 2FMN + F9.40] (Eterna round: R96, puzzle: Same State NG 2) | 15.1 nM | 15.2 nM | 23.2 nM |  |  | 
CUCGAGAGGUUAUAGGAUAUCCAUUUACGUACAUGAGGAUCACCCAUGUCUGACCGCUGGGUCAGGGAGAAGGGUAAGAUCGAGA [Tegeoror] (puzzle: Same State 2) |  |  |  | 275 nM | 420 nM | 600 nM
CUCUCACAUGAGGAUCACCCAUGUCCACCUCCGUGAGGAUAUAGAUAAUAAAUACAUUUACUAGAAGGCGCAUCCC [Bay] (puzzle: Same State 1) |  |  |  |  | 263 nM | 
